The results in this text go back to patent publication US9340582B2, “Bioconjugates of synthetic apelin polypeptides” (NOVARTIS AG, priority 2013, dated 2016).

The target of one data set is T1, hAPJ (Homo sapiens, UniProt P35414).
T1 sequence (P35414 1-380): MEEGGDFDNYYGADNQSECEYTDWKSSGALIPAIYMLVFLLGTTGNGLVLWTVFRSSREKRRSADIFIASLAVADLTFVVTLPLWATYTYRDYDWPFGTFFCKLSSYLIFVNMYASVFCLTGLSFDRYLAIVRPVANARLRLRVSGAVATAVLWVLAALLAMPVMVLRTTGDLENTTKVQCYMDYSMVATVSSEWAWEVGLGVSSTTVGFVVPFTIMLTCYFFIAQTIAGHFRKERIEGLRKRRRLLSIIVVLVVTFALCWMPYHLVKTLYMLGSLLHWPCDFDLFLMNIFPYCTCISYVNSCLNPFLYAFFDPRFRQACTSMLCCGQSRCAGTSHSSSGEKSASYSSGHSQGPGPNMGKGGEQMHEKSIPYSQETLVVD
Briefly: hAPJ Calcium Flux Assay. The following applies: Chem-5 APJ stable cells, FLIPR calcium flux; read-out: hAPJ Ca^2+ Flux EC50. Type of data set: cell-based.

Data set [1] can be described thus: Surrogate activity-based plasma stability assay. The following applies: for Surrogate activity-based Plasma stability t½: Table 2.
Data set [2] can be described thus: Plasma Stability Assay (LC-MS). Type of data set: in vitro ADME. The following applies: Table 3, rat plasma, 37° C. Here is the method: • Materials: • Working solution: 1 mg/mL test article is prepared in Milli-Q water • Extraction solution: Methanol:Acetonitrile:Water (1:1:1) with 0.1% Formic Acid and 400 ng/mL Glyburide. • Plasma: Male Sprague-Dawley rat plasma (with sodium heparin), purchased from Bioreclamation LLC (Liverpool, N.Y.). • Whole blood: Male Sprague Dawley whole blood (with sodium heparin), purchased from Bioreclamation LLC (Liverpool, N.Y.) • Lung homogenate: Male rat Sprague Dawley lung was purchased from Bioreclamation LLC (Liverpool, N.Y.). The lung was homogenized using polytron homogenizer after addition of 5× volume of 1×PBS. The homogenate was centrifuged at 9000 rpm for 10 min at 4° C. The supernatant was centrifuged again at 3000 rpm for 30 min to make a clear supernatant. Protein concentration was determined using a commercial kit (Pierce, Thermo Scientific). Sample Preparation Procedure: (peptides)
Test article was prepared in one of the following biological matrices: heparinized rat plasma, heparinized rat whole blood or lung homogenate. The plasma and whole blood sample was prepared at 5000 ng/mL by adding 5 uL of 1 mg/mL Working solution to 995 uL of rat plasma or whole blood. […]

Bridge positions count the residues as written; N and C are the ends. Square brackets hold non-standard residues; d marks the D form. * marks the point of attachment. Propanoyl(3-maleimido) = O=C1C=CC(=O)N1CCC(=O)*; Nle = CCCC[C@H](N)C(=O)O; AEEA = NCCOCCOCC(=O)O

Procedure for hAPJ: Chem-5 APJ stable cells (Millipore #HTS068C) were plated in 384-well format with 10,000 cells/well in 25 ul growth media, then grown 24 hours in a 37° C. tissue culture incubator. One hour before the assay, 25 ul/well FLIPR Calcium 4 dye (Molecular Devices R8142) with 2.5 mM probenecid was added, and cells were incubated one hour in a 37° C. tissue culture incubator. Bioconjugates were solubilized in HBSS, HEPES & 0.1% BSA buffer, and serially-diluted 10-fold, from 50 uM to 5 pM, in triplicate. FLIPR Tetra was used to add bioconjugates to the cells with dye (1:5, for final bioconjugate concentrations ranging from 10 uM to 1 pM). FLIPR dye inside the cells emitted fluorescence after binding to calcium, while fluorescence from outside the cells was masked. […] Readings were done for 3 minutes total, beginning 10 seconds before the bioconjugate addition. Maximum-minimum values were calculated and plotted for each bioconjugate concentration, and GraphPad prism software was used to calculate EC50 values at the curve inflection points, for calcium flux stimulation by bioconjugates.

On to “Albumin-MPA-NHCH2CH2CH2−OCH2CH2OCH2CH2O-CH2CH2CH2NH-C(O)CH2CH2C═O-A-R-P-R-L-S-H-K-G-P-Nle-P-F-OH (ARPRLSHKGPLPF; albumin-MPA linker conjugate; Nle residue) [Example 3]”, for which the EC50 in the data set with hAPJ worked out at 52 nM. Moreover, the “Surrogate activity-based Plasma stability t½” value in data set [1] came out at 0.405 h.

With “Albumin-MPA-O2Oc-O2Oc-O2Oc-O2Oc-Q-R-P-R-L-C*-H-F-G-P-Nle-C*-f-OH ({albumin-Propanoyl(3-maleimido)}-[AEEA][AEEA][AEEA][AEEA]QRPRLCHFGP[Nle]C[dF]-OH; disulfide 10-16; also: albumin conjugate) [Example 1]”, the EC50 with hAPJ is 47.2 nM.

For the substance “Albumin-MPA-O2Oc-O2Oc-O2Oc-O2Oc-Q-R-P-R-L-C*-H-F-G-P-Nle-C*-f-OH [Example 1]”, the “Surrogate activity-based Plasma stability t½” value in data set [1] was greater than 16.67 h.

Regarding “Albumin-TPA-O2Oc-O2Oc-O2Oc-O2Oc-Q-R-P-R-L-C*-H-F-G-P-Nle-C*-f-OH [Example 2]”, the EC50 on hAPJ is 92.4 nM. Further, the “Plasma stability t½” value in data set [2] was roughly 24 h. Besides, in data set [1], the “Surrogate activity-based Plasma stability t½” value was greater than 16.67 h. In data set [1] (Table 3), the “Surrogate Activity based Plasma stability t½” value is greater than 16.67 h.

Take “Example 4: Fc-Apelin fusion SEQ ID NO: 98; linker GGGGSGGGGS, polypeptide QRPRLSHKGPMPF”: in data set [1], the “Surrogate activity-based Plasma stability t½” value was 3.53 h.

Consider “Example 5: Fc-Apelin fusion SEQ ID NO: 99; linker GGGGSGGGGSGGGGS, polypeptide QRPRLSHKGPMPF”, for which, in data set [1], the “Surrogate activity-based Plasma stability t½” value was found to be 5.57 h.
